Test [1] has as its target T1, Human nectin-4 ECD-6His (TNT-175) (human, UniProt Q96NY8 32-349).
T1 construct: the entry holds the extracellular domain with the C-terminal 6His tag
T1 sequence: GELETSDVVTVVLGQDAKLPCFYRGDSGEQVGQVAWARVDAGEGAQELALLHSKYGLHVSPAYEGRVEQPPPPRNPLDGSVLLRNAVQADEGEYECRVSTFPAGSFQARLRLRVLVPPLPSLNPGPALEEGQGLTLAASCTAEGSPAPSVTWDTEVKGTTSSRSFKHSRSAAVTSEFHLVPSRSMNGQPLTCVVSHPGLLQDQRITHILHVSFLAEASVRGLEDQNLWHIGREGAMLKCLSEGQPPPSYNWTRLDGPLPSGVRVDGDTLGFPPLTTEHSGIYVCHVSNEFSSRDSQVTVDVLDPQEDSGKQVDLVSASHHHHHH
Put plainly: SPR ProteOn, mAb on protein A. On the procedure:
Initial testing of binding of nectin-4 antibodies to nectin-4. […] Biotinylated protein A (15 μg/mL) was immobilized to the surface of an NLC chip. 30 nM of purified mAb supernatant was diluted in PBS-T and captured over the protein A surface. Serial dilutions of human nectin-4 were injected over the mAb-coated chips, and binding kinetics were determined. Chips were regenerated using 4:1 v/v of IgG elution butter/4M NaCl.

For test [2], the target named is T1, Human nectin-4 ECD-6His (TNT-175). Put plainly: competition ELISA; nectin-4 ECD premixed with TNT206, captured by the coat antibody; % of signal without premix antibody. The procedure:
(§1) Competition experiments of nectin-4 antibodies. ELISA plates were coated overnight at 4° C. with goat anti-mouse IgG at […] in PBS. […] As positive control, nectin-4 was diluted at same concentrations without a premix antibody. Two wells per plate were allocated for diluent only as negative/background control. Plates were washed as previously, 50 μL/well of premix was added to each plate and incubated for one hour. Plates were washed then incubated at room temperature for one hour with Rabbit anti 6× HIS HRP diluted 1:4,000 in diluent. Plates were washed once more and incubated at room temperature for 20 minutes with 50 μL/well of ABTS substrate. […] Binding was measured as an Optical Density (O.D.) value normalized to background and calculated as a percentage of positive control at the lowest nectin-4 dilution for greatest resolution.
(In general: In an ELISA, binding on a coated surface is turned into a signal by an enzyme label.)

The target is the same in test [3]. The test can be described thus: competition ELISA; nectin-4 ECD premixed with TNT207, captured by the coat antibody; % of signal without premix antibody. On the procedure: as §1
For test [4] the target is unchanged. Put plainly: competition ELISA; nectin-4 ECD premixed with TNT202, captured by the coat antibody; % of signal without premix antibody. On the procedure: as §1
For test [5] the target is unchanged. Put plainly: competition ELISA; nectin-4 ECD premixed with TNT208, captured by the coat antibody; % of signal without premix antibody. The procedure:
as §1

Test [6] has the same target. Put plainly: competition ELISA; nectin-4 ECD premixed with TNT209, captured by the coat antibody; % of signal without premix antibody. On the procedure:
as §1

Test [7] shares this target. The test can be described thus: competition ELISA; nectin-4 ECD premixed with TNT210, captured by the coat antibody; % of signal without premix antibody. The procedure:
as §1

The target is the same in test [8]. Put plainly: competition ELISA; nectin-4 ECD premixed with TNT212, captured by the coat antibody; % of signal without premix antibody. The procedure:
as §1

Test [9] shares this target. Put plainly: competition ELISA; nectin-4 ECD premixed with TNT204, captured by the coat antibody; % of signal without premix antibody. The procedure:
as §1

The target in a further test is T2, human nectin-4 on cells (human, UniProt Q96NY8 32-510).
T2 construct: whole, on cells; also called PVRL4
T2 sequence (looked up): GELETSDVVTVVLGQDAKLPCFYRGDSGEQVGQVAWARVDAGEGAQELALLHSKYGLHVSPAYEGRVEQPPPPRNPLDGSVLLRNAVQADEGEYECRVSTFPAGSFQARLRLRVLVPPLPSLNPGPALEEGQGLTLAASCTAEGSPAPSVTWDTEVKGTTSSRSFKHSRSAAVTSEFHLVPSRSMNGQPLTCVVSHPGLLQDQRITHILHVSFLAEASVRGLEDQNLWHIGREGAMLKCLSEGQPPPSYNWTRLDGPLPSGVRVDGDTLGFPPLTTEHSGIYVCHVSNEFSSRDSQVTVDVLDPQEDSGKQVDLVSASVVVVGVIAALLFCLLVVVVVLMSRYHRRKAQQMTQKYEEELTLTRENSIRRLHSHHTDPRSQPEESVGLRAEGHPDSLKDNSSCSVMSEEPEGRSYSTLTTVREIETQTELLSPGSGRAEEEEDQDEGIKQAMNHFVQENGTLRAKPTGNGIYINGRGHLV
Put plainly: flow cytometry MFI, MNK74 (nectin-4 positive) over AGS (negative). On the procedure:
Cell binding of nectin-4 antibodies. Cell binding of the nectin-4 antibodies was also assessed. MNK74 (nectin-4 positive) and AGS (nectin-4 negative) cells were obtained from ATCC and cultured according to their protocols. Cells were detached with TrypLE (Gibco) and washed by centrifugation for five minutes at 400×g with FACS buffer (PBS+2% FBS). Cells were resuspended in FACS buffer, plated in 96-well format (0.25 e6/well) then pelleted by centrifugation for five minutes at 400×g. Cells were stained at 4° C. in Fixable Viability Dye eFluor 506 (eBioscience) diluted 1:4,000 in PBS. […] Cells were centrifuged, washed once in FACS buffer and stained at 4° C. with Goat F(ab′)₂ anti-Mouse IgG APC (Southern Biotech) diluted 1:400 in FACS buffer for 30 minutes or appropriate anti-human IgG. Cells were centrifuged, washed twice and fixed in 0.5% paraformaldehyde. Cells were analyzed on Attune NxT Flow Cytometer (Thermo Fisher), with subsequent data analysis by Flowjo 10.7 (BD). Dead cells were excluded by gating on the eFluor 506-negative population. […] Binding was assessed by median fluorescent intensity.

In test [10] the target is T1, Human nectin-4 ECD-6His (TNT-175). Put plainly: competition ELISA; nectin-4 ECD premixed with TNT211, captured by the coat antibody; % of signal without premix antibody. The procedure: as §1
The target is the same in test [11]. The test can be described thus: competition ELISA; nectin-4 ECD premixed with TNT203, captured by the coat antibody; % of signal without premix antibody. The procedure:
as §1

The target is the same in test [12]. Put plainly: competition ELISA; nectin-4 ECD premixed with TNT201, captured by the coat antibody; % of signal without premix antibody. The procedure:
as §1

The target is the same in test [13]. Put plainly: competition ELISA; nectin-4 ECD premixed with TNT205, captured by the coat antibody; % of signal without premix antibody. The procedure:
as §1

B1: TNT-192 (antibody, mouse IgG2a, kappa)
heavy: EVQLLESGGGVVQPGRSLRLSCAASGFTFSSYGMHWVRQAPGKGLEWVAVISYDGSNKYYADSVKGRFTISRDNSKNTLYLQMNSLRAEDTAVYYCAKDYGYNWNFFDYWGQGTLVTVSSAKTTAPSVYPLAPVCGDTTGSSVTLGCLVKGYFPEPVTLTWNSGSLSSGVHTFPAVLQSDLYTLSSSVTVTSSTWPSQSITCNVAHPASSTKVDKKIEPRGPTIKPCPPCKCPAPNLLGGPSVFIFPPKIKDVLMISLSPIVTCVVVDVSEDDPDVQISWFVNNVEVHTAQTQTHREDYNSTLRVVSALPIQHQDWMSGKEFKCKVNNKDLPAPIERTISKPKGSVRAPQVYVLPPPEEEMTKKQVTLTCMVTDFMPEDIYVEWTNNGKTELNYKNTEPVLDSDGSYFMYSKLRVEKKNWVERNSYSCSVVHEGLHNHHTTKSFSRTPGRPQGFGPP
light: DIVMTQSPSSLSASVGDRVTITCRASQGISNYLAWYQQKPGKVPKLLIYAASTLQSGVPSRFSGSGSGTDFTLTISSLQPEDVATYYCQKYNSAPYTFGQGTKVEIKRADAAPTVSIFPPSSEQLTSGGASVVCFLNNFYPKDINVKWKIDGSERQNGVLNSWTDQDSKDSTYSMSSTLTLTKDEYERHNSYTCEATHKTSTSPIVKSFNRNEC
B1: in [1], the Kd (commonly the free concentration of one partner at which half of the binding sites on the other are occupied at equilibrium, for simple one-to-one binding) was determined as 9.14 nM. Moreover, the koff (commonly the first-order rate constant of dissociation) in test [1] stood at 0.00294 s⁻¹. In [1], the on-rate constant (kon) (commonly the rate constant with which the complex forms) was determined as 322000 M⁻¹ s⁻¹. For the same molecule, the “% of Positive” value in test [2] is 6%; in test [3], 1.5%; in [4] it was 3.1%; in [5] it was 2.3%; in test [6], 20.5%; in test [7] it was 1.1%. The “% of Positive” value in test [8] was 2.2%; in test [9], 2.9%; in [10] it was 17.5%; in test [11], 23.3%; in test [12], 1.1%; in test [13], 36.9%. Also, the “Fold-change of binding to MNK74 compared to control AGS” value with human nectin-4 on cells was 4.5 fold.

B2: TNT-193 (antibody, mouse IgG2a, kappa)
heavy: QVQLQESGPGLVKPSGTLSLTCTVSGGSISSGGYYWAWIRQPPGKGLEWIGSIYYTGSTYYNPSLKSRVTIYVDTSKNQFSLKLSSVTAADTAVYYCARDPFPEPPDAFDIWGQGTMVTVSSAKTTAPSVYPLAPVCGDTTGSSVTLGCLVKGYFPEPVTLTWNSGSLSSGVHTFPAVLQSDLYTLSSSVTVTSSTWPSQSITCNVAHPASSTKVDKKIEPRGPTIKPCPPCKCPAPNLLGGPSVFIFPPKIKDVLMISLSPIVTCVVVDVSEDDPDVQISWFVNNVEVHTAQTQTHREDYNSTLRVVSALPIQHQDWMSGKEFKCKVNNKDLPAPIERTISKPKGSVRAPQVYVLPPPEEEMTKKQVTLTCMVTDFMPEDIYVEWTNNGKTELNYKNTEPVLDSDGSYFMYSKLRVEKKNWVERNSYSCSVVHEGLHNHHTTKSFSRTPGRPQGFGPP
light: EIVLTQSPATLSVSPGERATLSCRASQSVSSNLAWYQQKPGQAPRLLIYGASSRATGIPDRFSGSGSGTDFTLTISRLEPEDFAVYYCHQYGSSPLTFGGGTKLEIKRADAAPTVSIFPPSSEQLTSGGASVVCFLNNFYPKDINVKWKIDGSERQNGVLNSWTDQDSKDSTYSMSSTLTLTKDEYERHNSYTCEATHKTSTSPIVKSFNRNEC
On to B2, for which the Kd in test [1] is 3.73 nM. Besides, the koff in [1] worked out at 0.00837 s⁻¹. The molecule also displayed a kon in test [1] of 2.24e+06 M⁻¹ s⁻¹. The “% of Positive” value in test [2] is 3.1%; in test [3], 1.6%; in [4], 3%; in [5], 2.4%; in test [6], 5.1%; in test [7] it was 2.1%. In addition, the “% of Positive” value came out at 3.7% in [8]; 1.9% in test [9]; 6% in test [10]; 17% in [11]; 2.2% in test [12]; 8.4% in test [13]. Further, the “Fold-change of binding to MNK74 compared to control AGS” value with human nectin-4 on cells turned out to be 5.2 fold.

Values taken from patent publication US20240382610A1 (TALLAC THERAPEUTICS, published 2024).
